Reference: patent publication US20180086841A1 (Merck Sharp & Dohme, published 2018)

Key:
D43A = biological target: T1, D43A; test: flow cytometry on CHO-K1 transfectants, left sub-column
T1 construct: also called hCD27 D43A
T1 receptor chain: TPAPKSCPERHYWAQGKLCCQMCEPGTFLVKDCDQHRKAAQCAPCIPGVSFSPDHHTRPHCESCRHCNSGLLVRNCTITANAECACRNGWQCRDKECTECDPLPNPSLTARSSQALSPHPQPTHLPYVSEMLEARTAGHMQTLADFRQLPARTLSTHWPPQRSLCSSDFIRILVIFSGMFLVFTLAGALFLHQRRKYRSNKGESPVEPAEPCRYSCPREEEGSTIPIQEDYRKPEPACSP
Procedure: (§1) The hCD27 variants that were tested are listed. Amino acids correspond to the UniProt P26842-1 sequence. Amino acids 1-20 constitute the signal peptide. Binding is expressed as the geometric mean of the FITC signal, relative to antibody binding to hCD27, which was set at 100%.
(§2) The ability of several anti-hCD27 antibodies to bind to a series of hCD27 alanine mutants was determined using CHO-K1 cells, transiently transfected pCI-neo empty vector, pCI-neo.hCD27 and several pCI-neo.CD27Ala mutant constructs.
(§3) Detached cells were transferred to 96 wells round-bottomed well plates at approximately 1.2×10⁵ cells/well. After spinning down the cells, discarding the supernatants and re-suspending the cells in the residual volume, the primary antibodies were added and incubated for 30 minutes at 4° C. Cells were washed three times with DPBS/BSA 1%, followed by centrifugation, discarding of the supernatants and re-suspension in the residual volume. […] After washing once, antibody binding was detected using the HTS plate reader (FACS Canto II) and FlowJo software for data analysis. Debris, dead cells and doublets were excluded from the analysis. Binding was expressed as the geometric mean of the FITC signal, relative to antibody binding to hCD27, which was set at 100%.

Q41A [1] = biological target: T2, Q41A; test: as above
T2 construct: also called hCD27 Q41A
T2 receptor chain: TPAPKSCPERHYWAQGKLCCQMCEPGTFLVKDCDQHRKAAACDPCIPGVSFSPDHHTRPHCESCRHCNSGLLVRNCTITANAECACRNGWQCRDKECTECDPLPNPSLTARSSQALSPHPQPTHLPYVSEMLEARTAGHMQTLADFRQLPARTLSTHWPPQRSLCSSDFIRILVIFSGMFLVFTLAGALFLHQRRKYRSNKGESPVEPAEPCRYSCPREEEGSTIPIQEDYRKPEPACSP
Procedure: as §1, §2, §3

R10A = biological target: T3, R10A; test: as above
T3 construct: also called hCD27 R10A
T3 receptor chain: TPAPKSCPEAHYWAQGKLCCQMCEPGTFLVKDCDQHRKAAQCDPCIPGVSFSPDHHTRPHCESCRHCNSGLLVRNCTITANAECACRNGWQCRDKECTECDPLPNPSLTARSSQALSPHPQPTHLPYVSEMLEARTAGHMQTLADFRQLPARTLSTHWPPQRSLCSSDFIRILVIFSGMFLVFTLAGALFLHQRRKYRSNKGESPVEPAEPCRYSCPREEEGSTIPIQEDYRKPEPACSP
Procedure: as §1, §2, §3

H60A = biological target: T4, H60A; test: as above
T4 construct: also called hCD27 H60A
T4 receptor chain: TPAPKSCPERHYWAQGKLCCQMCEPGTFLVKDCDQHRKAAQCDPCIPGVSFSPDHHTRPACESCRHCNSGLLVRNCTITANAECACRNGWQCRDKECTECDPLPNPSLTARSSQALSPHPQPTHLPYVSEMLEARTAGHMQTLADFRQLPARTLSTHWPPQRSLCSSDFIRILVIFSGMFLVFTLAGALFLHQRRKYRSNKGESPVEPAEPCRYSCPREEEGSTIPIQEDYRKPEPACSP
Procedure: as §1, §2, §3

W13A = biological target: T5, W13A; test: as above
T5 construct: also called hCD27 W13A
T5 receptor chain: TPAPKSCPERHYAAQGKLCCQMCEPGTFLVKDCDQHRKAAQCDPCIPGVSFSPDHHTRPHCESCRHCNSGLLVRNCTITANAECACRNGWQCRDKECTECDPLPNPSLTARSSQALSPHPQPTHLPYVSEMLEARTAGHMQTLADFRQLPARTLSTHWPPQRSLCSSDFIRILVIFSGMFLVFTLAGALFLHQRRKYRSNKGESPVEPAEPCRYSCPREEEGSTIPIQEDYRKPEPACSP
Procedure: as §1, §2, §3

P44A = biological target: T6, P44A; test: as above
T6 construct: also called hCD27 P44A
T6 receptor chain: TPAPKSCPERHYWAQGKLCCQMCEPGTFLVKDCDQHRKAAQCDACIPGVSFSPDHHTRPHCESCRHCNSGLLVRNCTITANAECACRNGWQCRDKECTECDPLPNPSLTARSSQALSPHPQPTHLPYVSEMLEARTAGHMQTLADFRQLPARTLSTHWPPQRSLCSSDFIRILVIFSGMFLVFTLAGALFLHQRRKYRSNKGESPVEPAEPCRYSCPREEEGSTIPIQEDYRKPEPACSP
Procedure: as §1, §2, §3

Q91A = biological target: T7, Q91A; test: flow cytometry on CHO-K1 transfectants, right sub-column
T7 construct: also called hCD27 Q91A
T7 receptor chain: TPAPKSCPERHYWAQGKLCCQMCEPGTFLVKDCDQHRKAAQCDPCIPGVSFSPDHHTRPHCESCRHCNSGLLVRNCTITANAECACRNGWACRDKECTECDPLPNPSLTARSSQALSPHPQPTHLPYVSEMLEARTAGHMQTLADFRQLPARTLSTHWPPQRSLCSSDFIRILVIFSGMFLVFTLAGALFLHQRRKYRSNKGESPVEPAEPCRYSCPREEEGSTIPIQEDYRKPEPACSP
Procedure: as §1, §2, §3

Q41A [2] = biological target: T2, Q41A; test: as above
Procedure: as §1, §2, §3

K17A = biological target: T8, K17A; test: as above
T8 construct: also called hCD27 K17A
T8 receptor chain: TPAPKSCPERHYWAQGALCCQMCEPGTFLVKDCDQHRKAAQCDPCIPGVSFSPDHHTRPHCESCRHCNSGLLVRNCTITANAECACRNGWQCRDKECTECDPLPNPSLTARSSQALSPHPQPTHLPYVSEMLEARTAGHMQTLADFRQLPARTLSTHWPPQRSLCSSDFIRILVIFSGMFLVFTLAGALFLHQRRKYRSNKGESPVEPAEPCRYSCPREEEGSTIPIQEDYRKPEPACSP
Procedure: as §1, §2, §3

K31A = biological target: T9, K31A; test: as above
T9 construct: also called hCD27 K31A
T9 receptor chain: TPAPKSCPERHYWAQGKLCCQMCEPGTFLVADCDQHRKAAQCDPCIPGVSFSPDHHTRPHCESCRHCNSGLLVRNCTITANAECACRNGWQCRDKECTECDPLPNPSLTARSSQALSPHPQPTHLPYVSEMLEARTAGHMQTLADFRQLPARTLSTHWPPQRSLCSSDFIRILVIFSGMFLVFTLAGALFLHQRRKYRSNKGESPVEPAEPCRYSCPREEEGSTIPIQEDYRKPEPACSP
Procedure: as §1, §2, §3

F28A = biological target: T10, F28A; test: as above
T10 construct: also called hCD27 F28A
T10 receptor chain: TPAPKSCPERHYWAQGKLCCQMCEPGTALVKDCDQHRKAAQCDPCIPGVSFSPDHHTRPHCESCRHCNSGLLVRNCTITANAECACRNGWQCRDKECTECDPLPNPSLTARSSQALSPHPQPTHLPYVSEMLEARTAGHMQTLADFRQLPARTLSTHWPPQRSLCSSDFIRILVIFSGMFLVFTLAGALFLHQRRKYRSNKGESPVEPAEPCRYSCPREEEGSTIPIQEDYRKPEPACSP
Procedure: as §1, §2, §3

B1: hCD27.131A (mouse parental 131A) (antibody, mouse IgG1, V domains shown)
VH: QIQLVQSGPELKKPGETVKISCKASGYTFTNYGMNWVKQAPGKGLKWMGWINTNTGEPTYAEEFKGRFAFSLETSATTAYLQINNLKNEDTATYFCAREGDAMDYWGQGTSVTVSS
VL: QIVLTQSPAIMSASPGEKVTMTCSASSSVSYMHWYQQKSGTSPKRWIYDTSKLASGVPARFSGSGSGTSYSLTISSMEAEDAATYYCQQWNSYPFTFGSGTKLEIK
notes: Mouse IgG1 antibody; also called mouse hCD27.131A
For B1, the “binding, WT hCD27 = 100 (GM FITC)” value (D43A) was 194%, the “binding, WT hCD27 = 100 (GM FITC)” value (Q41A [1]) was 108% and the “binding, WT hCD27 = 100 (GM FITC)” value (R10A) was 103%. For the same binder, the “binding, WT hCD27 = 100 (GM FITC)” value (H60A) was 178%, the “binding, WT hCD27 = 100 (GM FITC)” value (W13A) was 86% and the “binding, WT hCD27 = 100 (GM FITC)” value (P44A) was 158%. The “binding, WT hCD27 = 100 (GM FITC)” value (Q91A) was 136%, the “binding, WT hCD27 = 100 (GM FITC)” value (Q41A [2]) was 80.5% and the “binding, WT hCD27 = 100 (GM FITC)” value (K17A) was 126%. The “binding, WT hCD27 = 100 (GM FITC)” value (K31A) was 134% and the “binding, WT hCD27 = 100 (GM FITC)” value (F28A) was 57.1%.
